{"source": "paper PMC7300195", "about": "(2020)", "assay_in_all_cases": "BLI", "key": {"[1]": {"target": "Mono G"}, "[2]": {"target": "NiV G trimer: NiV G head domain residues 172-602 coupled to an N-terminal foldon domain ( | Nipah virus (Malaysia), UniProt Q9IH62 172-602)"}, "[3]": {"target": "NiV G ferritin 24-mer nanoparticle: NiV G ectodomain residues 172-602 linked to the C-terminus of fe (Nipah virus (Malaysia), UniProt Q9IH62 172-602)"}, "[4]": {"target": "hexameric NiV G: two G ectodomain headgroups linked by a foldon trimerization domain via short glycine linkers (Nipah virus (Malaysia) | )"}, "[5]": {"target": "Stalk G"}}, "data": [{"binder": "m102.4 monoclonal antibody (HeV G-specific antibody), human IgG1/kappa (antibody, V domains shown) VH: EVQVIQSGADVKKPGSSVKVSCKSSGGTFSKYAINWVRQAPGQGLEWMGGIIPILGIANYAQKFQGRVTITTDESTSTAYMELSSLRSEDTAVYYCARGWGREQLAPHPSQYYYYYYGMDVWGQGTTVTVSS VL: EIVMTQSPGTLSLAPGERATLSCWASQSVRNNYLAWYQQKPGQAPRLVIYNGSTRATGIPDRFSGSGSGTDFTLTISRLDPEDFAVYYCQQYGNSRRVTFGGGTKVEIK", "values": [{"measurement": "Kd", "setting": "[1]", "result": 402, "unit": "nM"}, {"measurement": "koff", "setting": "[1]", "result": 0.131, "unit": "s⁻¹"}, {"measurement": "Kd", "setting": "[2]", "result": 153, "unit": "nM"}, {"measurement": "koff", "setting": "[2]", "result": 0.0857, "unit": "s⁻¹"}, {"measurement": "Kd", "setting": "[3]", "result": 17.8, "unit": "nM"}, {"measurement": "koff", "setting": "[3]", "result": 0.0279, "unit": "s⁻¹"}, {"measurement": "Kd", "setting": "[4]", "result": 86.2, "unit": "nM"}, {"measurement": "koff", "setting": "[4]", "result": 0.0596, "unit": "s⁻¹"}, {"measurement": "Kd", "setting": "[5]", "result": 112, "unit": "nM"}, {"measurement": "koff", "setting": "[5]", "result": 0.0849, "unit": "s⁻¹"}]}]}
